Laboratory results published in patent US20160090416A1 (NUMAB, published 2016).
Substitutions are numbered along the chain they refer to.

B1: clone-02 (antibody, V domains shown)
VH: QSLEESGGRLVTPGTPLTLTCTVSGFPLSAYAMIWVRQAPGKGLEWIGMIIRSGTVYYANWAKGRFTISKTSTTVDLKITSPTTEDTATYFCARRHYNADGYPIGIGDLWGPGTLVTVSS
VL: AQVLTQTPSSVSAVVGGTVTISCQSSESVYSNNRLSWFQQKPGQPPKLLIYSASTLASGVPSRFKGSGSGTQFTLTITDLECDDAATYFCQGEFSCSSVDCFSFGGGTEVVVKG
B2: clone-10 (antibody, V domains shown)
VH: QSLEESGGRLVTPGTPLTLTCTVSGFPLSSFAMLWVRQAPGKGLEWIGMIMRAHNMYYASWAKGRFTISKTSTTVDLEITSPTTEDTATYFCARRHYNTYGYPIAIGDLWGPGTLVTVSS
VL: AQVLTQTPSSVSAAVGGTATISCQSNENIYSNNRLSWFQQKAGQPPNQLIYSASSLASGVPSRFKGSGSGTQFTLTISDLECDDAATYYCQGEFSCSSADCFTFGGGTEVVVKG
B3: clone-06 (antibody, V domains shown)
VH: QSVEESGGRLVTPGTPLTLTCTVSGFPLSSYAMIWVRQAPGKGLEWIGMILRAGNIYYASWVKGRVTISKTSTTVDLKITSPTTEDTATYFCARRHYNREGYPIGIGDLWGPGTLVTVSS
VL: AQVLTQTPSSVSAAVGGTVTISCQSSESVYNNKRLSWFQQKPGQPPKQLIYTASSLASGVPSRFKGSGSGTQFTLTISDLECDDAATYYCQGEFTCSNADCFTFGGGTEVVVKG
B4: clone-03 (antibody, V domains shown)
VH: B2 VH with S29N, S30R, F31Y, M49L, M51T, H54D, N55K, M56K, S81G, Y100D
VL: B2 VL with A19V, A42P, S95N, S97N
B5: clone-04 (antibody, V domains shown)
VH: QSLEESGGRLVKPDETLTLTCTVSGFPLSSYAMGWFRQAPGKGLEWIGMILRSDNTYYASWAKGRFTISKTSTTVDLKITSPTTEDTATYFCARRHYNASGNPIAIGDLWGPGTLVTVSS
VL: B3 VL with S22N, E27Q, K33N, Q48L, A53T, Q72E, D83A, T95S, N98R, T103N
B6: Construct 2 (anti-CD3×anti-IL5R scDb comprising the humanized variable domain of clone-02) (bispecific antibody)
chain: DIQMTQSPSSLSASVGDRVTITCQASQNIYSNLAWYQQKPGKAPKLLIYRASTLASGVPSRFSGSGSGTDFTLTISSLQPEDFATYYCQSNYGINYYGAAFGQGTKLTVLGGGGGSEVQLVESGGGLVQPGGSLRLSCAASGFPLSAYAMIWVRQAPGKGLEWIGMIIRSGTVYYANWAKGRFTISRDNSKNTVYLQMNSLRAEDTAVYYCARRHYNADGYPIGIGDLWGQGTLVTVSSGGGGSGGGGSGGGGSGGGGSDIQMTQSPSSLSASVGDRVTITCQSSESVYSNNRLSWYQQKPGKAPKLLIYSASTLASGVPSRFSGSGSGTDFTLTISSLQPEDFATYYCQGEFSCSSVDCFSFGQGTKLTVLGGGGGSEVQLVESGGGLVQPGGSLRLSCAASGFSLSSYDMTWVRQAPGKGLEWIGIIYVSGSAYYASWAKGRFTISRDNSKNTVYLQMNSLRAEDTAVYYCARINYGLDLWGQGTLVTVSS
B7: Construct 1 (anti-CD3×anti-IL5R scDb comprising the humanized variable domain of clone-06) (bispecific antibody)
chain: DIQMTQSPSSLSASVGDRVTITCQASQNIYSNLAWYQQKPGKAPKLLIYRASTLASGVPSRFSGSGSGTDFTLTISSLQPEDFATYYCQSNYGINYYGAAFGQGTKLTVLGGGGGSEVQLVESGGGLVQPGGSLRLSCAASGFPLSSYAMIWVRQAPGKGLEWIGMILRAGNIYYASWVKGRFTISRDNSKNTVYLQMNSLRAEDTAVYYCARRHYNREGYPIGIGDLWGQGTLVTVSSGGGGSGGGGSGGGGSGGGGSDIQMTQSPSSLSASVGDRVTITCQSSESVYNNKRLSWYQQKPGKAPKLLIYTASSLASGVPSRFSGSGSGTDFTLTISSLQPEDFATYYCQGEFTCSNADCFTFGQGTKLTVLGGGGGSEVQLVESGGGLVQPGGSLRLSCAASGFSLSSYDMTWVRQAPGKGLEWIGIIYVSGSAYYASWAKGRFTISRDNSKNTVYLQMNSLRAEDTAVYYCARINYGLDLWGQGTLVTVSS
B8: Construct 3 (anti-CD3×anti-IL5R scDb comprising the humanized variable domain of clone-03) (bispecific antibody)
chain: DIQMTQSPSSLSASVGDRVTITCQASQNIYSNLAWYQQKPGKAPKLLIYRASTLASGVPSRFSGSGSGTDFTLTISSLQPEDFATYYCQSNYGINYYGAAFGQGTKLTVLGGGGGSEVQLVESGGGLVQPGGSLRLSCAVSGFPLNRYAMLWVRQAPGKGLEWIGLITRADKKYYASWAKGRFTISKDNSKNTVYLQMNSLRAEDTAVYYCARRHYNTDGYPIAIGDLWGQGTLVTVSSGGGGSGGGGSGGGGSGGGGSDIQMTQSPSSLSASVGDRVTISCQSNENIYSNNRLSWYQQKPGKAPKLLIYSASSLASGVPSRFSGSGSGTDFTLTISDLEPEDFATYYCQGEFNCNSADCFTFGQGTKLTVLGGGGGSEVQLVESGGGLVQPGGSLRLSCAASGFSLSSYDMTWVRQAPGKGLEWIGIIYVSGSAYYASWAKGRFTISRDNSKNTVYLQMNSLRAEDTAVYYCARINYGLDLWGQGTLVTVSS

target: human CD3ε expressed on the cell surface of T cells (Jurkat clone E6-1; human CD8+ T cells) (human) (UniProt P07766); assay: cell-based or functional assay
Sequence (P07766 23-207): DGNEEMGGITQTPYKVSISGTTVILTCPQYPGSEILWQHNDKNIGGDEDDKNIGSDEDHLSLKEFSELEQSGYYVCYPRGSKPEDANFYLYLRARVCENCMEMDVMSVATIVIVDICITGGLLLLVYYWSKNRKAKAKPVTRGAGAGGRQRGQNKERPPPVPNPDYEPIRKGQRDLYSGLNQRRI

First: OKT3 (antibody)
Second: TR66 (antibody)
The Fold increase in CD69 expression [MFI normalized to neg. ctrl.], 1.25 µg/ml anti-CD3 IgG, cross-linked, Jurkat cells, 24 h of the first is higher: 1.8 fold for the first, 1.6 fold for the second.

First: OKT3 (antibody)
Second: TR66 (antibody)
The Fold increase in CD69 expression [MFI normalized to neg. ctrl.], 5 µg/ml anti-CD3 IgG, cross-linked, Jurkat cells, 24 h of the first is higher: 2.5 fold for the first, 2.2 fold for the second.

First: OKT3 (antibody)
Second: TR66 (antibody)
The Fold increase in CD69 expression [MFI normalized to neg. ctrl.], 20 µg/ml anti-CD3 IgG, cross-linked, Jurkat cells, 24 h of the first is higher: 3.1 fold for the first, 3 fold for the second.

target: T1, human CD3ε expressed on the cell surface of T cells (Jurkat clone E6-1; human CD8+ T cells) (human, UniProt P07766 23-207); assay: cell-based or functional assay
T1 sequence (P07766 23-207): as above

Going from B1 to B2, the “Fold increase in CD69 expression [MFI normalized to neg. ctrl.], 1.25 µg/ml anti-CD3 IgG, cross-linked, Jurkat cells, 24 h” value falls from 3.3 fold to 2.6 fold.

Compared with B3, B4 is lower in “Fold increase in CD69 expression [MFI normalized to neg. ctrl.], 1.25 µg/ml anti-CD3 IgG, cross-linked, Jurkat cells, 24 h” value: 2.7 fold for the first, 2.6 fold for the second.

With B5 the “Fold increase in CD69 expression [MFI normalized to neg. ctrl.], 1.25 µg/ml anti-CD3 IgG, cross-linked, Jurkat cells, 24 h” value was 2.6 fold.

Compared with B1, B2 is lower in “Fold increase in CD69 expression [MFI normalized to neg. ctrl.], 5 µg/ml anti-CD3 IgG, cross-linked, Jurkat cells, 24 h” value: 4.6 fold for the first, 4.2 fold for the second.

First: B3
Second: B4
The “Fold increase in CD69 expression [MFI normalized to neg. ctrl.], 5 µg/ml anti-CD3 IgG, cross-linked, Jurkat cells, 24 h” value of the first is higher: 5.1 fold for the first, 4.6 fold for the second.

With B5 the “Fold increase in CD69 expression [MFI normalized to neg. ctrl.], 5 µg/ml anti-CD3 IgG, cross-linked, Jurkat cells, 24 h” value was 3.5 fold.

Going from B1 to B2, the “Fold increase in CD69 expression [MFI normalized to neg. ctrl.], 20 µg/ml anti-CD3 IgG, cross-linked, Jurkat cells, 24 h” value falls from 7.4 fold to 6.2 fold.

Going from B3 to B4, the “Fold increase in CD69 expression [MFI normalized to neg. ctrl.], 20 µg/ml anti-CD3 IgG, cross-linked, Jurkat cells, 24 h” value rises from 5.3 fold to 6.6 fold.

For B5, the “Fold increase in CD69 expression [MFI normalized to neg. ctrl.], 20 µg/ml anti-CD3 IgG, cross-linked, Jurkat cells, 24 h” value was 7.8 fold.

target: T1, human CD3ε expressed on the cell …; assay: cell-based or functional assay; remark: another data set of the same source

First: B6
Second: B7
The “Potency to stimulate IL-2 secretion by T cells [EC50] (CD8+ T cells with CHO-IL5R cells, 16 h)” value of the first is 5.9-fold higher: 5.67 nM for the first, 0.96 nM for the second.

B7 was tested, and the “Potency to lyse target cells [EC50] (CHO-IL5R cells, human CD8+ T cells, 88 h)” value was 0.1 nM.

target: T2, human heterodimeric single-chain CD3εγ extracellular domain (human, UniProt P07766 23-126; P09693 23-116); assay: SPR (MASS-1), human scCD3εγ ECD immobilized, scDb injected
T2 construct: extracellular domain; Produced in-house; single-chain protein of the extracellular domains of CD3ε and CD3γ joined by a flexible linker; also called scCD3γε; human CD3ge
T2 sequence (P07766 23-126, chain 1 of 2): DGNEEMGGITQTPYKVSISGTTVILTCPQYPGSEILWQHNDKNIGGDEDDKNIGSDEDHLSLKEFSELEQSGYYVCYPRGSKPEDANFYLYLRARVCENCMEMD
T2 sequence (P09693 23-116, chain 2 of 2): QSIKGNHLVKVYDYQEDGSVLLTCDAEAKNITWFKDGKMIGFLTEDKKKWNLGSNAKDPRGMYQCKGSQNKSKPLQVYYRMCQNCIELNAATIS

Going from B6 to B7, the Kd falls from 29.6 nM to 11.5 nM (2.6-fold).

B8 gave a Kd of 123 nM.
